From the Human Domainome abundance scans (Beltran et al. 2025)
± gives the uncertainty stated by the source.

B1: Connector enhancer of kinase suppressor of ras 2, residues 9 to 71; numbered along this chain, Q8WXI2 (parent)
chain: SKWSPSQVVDWMKGLDDCLQQYIKNFEREKISGDQLLRITHQELEDLGVSRIGHQELILEAVD

Variants of: B1
Test: abundance fitness (aPCA) (normalised: wild type 0, dead -1); higher = more abundant; growth selection in yeast, the domain comes from the species named
Details: Homo sapiens

L59G and L59H are within error of each other in abundance fitness: -0.674 ± 0.032 for the first, -0.657 ± 0.068 for the second.

L59I and L59K are within error of each other in abundance fitness: -0.241 ± 0.048 for the first, -0.232 ± 0.034 for the second.

First: L59M
Second: L59N
The abundance fitness of the first is higher: -0.032 ± 0.039 for the first, -0.741 ± 0.074 for the second.

L59P and L59Q are within error of each other in abundance fitness: -0.608 ± 0.075 for the first, -0.646 ± 0.069 for the second.

Compared with L59R, L59S is lower in abundance fitness: -0.363 ± 0.028 for the first, -0.652 ± 0.043 for the second.

L59T and L59V are within error of each other in abundance fitness: -0.607 ± 0.038 for the first, -0.552 ± 0.03 for the second.

First: L59W
Second: L59Y
The abundance fitness of the first is lower: -0.758 ± 0.056 for the first, -0.61 ± 0.055 for the second.

Compared with E60C, E60D is higher in abundance fitness: -0.187 ± 0.037 for the first, -0.012 ± 0.047 for the second.

First: E60F
Second: E60G
The abundance fitness of the first is lower: -0.615 ± 0.058 for the first, -0.096 ± 0.031 for the second.

First: E60H
Second: E60I
The abundance fitness of the first is higher: -0.111 ± 0.038 for the first, -0.531 ± 0.056 for the second.

Going from E60M to E60N, the abundance fitness rises from -0.226 ± 0.032 to -0.012 ± 0.04.

Compared with E60P, E60Q is higher in abundance fitness: -0.905 ± 0.073 for the first, 0.006 ± 0.046 for the second.

Compared with E60R, E60S is higher in abundance fitness: -0.072 ± 0.025 for the first, -0.004 ± 0.026 for the second.

Compared with E60T, E60V is lower in abundance fitness: -0.057 ± 0.03 for the first, -0.439 ± 0.029 for the second.

Going from E60W to E60Y, the abundance fitness rises from -0.664 ± 0.04 to -0.514 ± 0.047.

V62A and V62C are within error of each other in abundance fitness: -0.335 ± 0.04 for the first, -0.411 ± 0.047 for the second.

V62D and V62E are within error of each other in abundance fitness: -0.822 ± 0.088 for the first, -0.63 ± 0.11 for the second.

V62F and V62G are within error of each other in abundance fitness: -0.921 ± 0.084 for the first, -0.802 ± 0.046 for the second.

Going from V62H to V62I, the abundance fitness rises from -1.04 ± 0.11 to -0.047 ± 0.044.

V62K and V62L are within error of each other in abundance fitness: -0.392 ± 0.12 for the first, -0.258 ± 0.037 for the second.

First: V62M
Second: V62N
The abundance fitness of the first is higher: -0.552 ± 0.043 for the first, -0.815 ± 0.057 for the second.

V62P and V62Q are within error of each other in abundance fitness: -0.779 ± 0.077 for the first, -0.789 ± 0.089 for the second.

First: V62R
Second: V62S
The abundance fitness of the first is higher: -0.061 ± 0.028 for the first, -0.741 ± 0.048 for the second.

First: V62T
Second: V62W
The abundance fitness of the first is higher: -0.58 ± 0.047 for the first, -0.909 ± 0.17 for the second.

Going from V62Y to D63A, the abundance fitness rises from -1.02 ± 0.11 to -0.001 ± 0.045.

D63C and D63E are within error of each other in abundance fitness: -0.025 ± 0.05 for the first, -0.012 ± 0.045 for the second.

First: D63F
Second: D63G
The abundance fitness of the first is lower: -0.233 ± 0.057 for the first, 0.041 ± 0.035 for the second.

First: D63H
Second: D63I
The abundance fitness of the first is higher: 0 ± 0.045 for the first, -0.274 ± 0.063 for the second.

D63K and D63L are within error of each other in abundance fitness: -0.059 ± 0.087 for the first, -0.176 ± 0.063 for the second.

Compared with D63N, D63P is lower in abundance fitness: -0.024 ± 0.06 for the first, -0.792 ± 0.14 for the second.

D63Q and D63R are within error of each other in abundance fitness: -0.039 ± 0.24 for the first, 0.108 ± 0.046 for the second.

Going from D63T to D63W, the abundance fitness falls from -0.055 ± 0.057 to -0.311 ± 0.12.
